Columns and labels:
[1] = molecular target: T1, mouse EphA4 extracellular region-Fc-His protein (mouse; human, UniProt Q03137 20-547); test: ELISA; Eph receptor extracellular region-Fc-His captured by anti-6-His antibody, antibody at 10 µg/mL
T1 construct: Used as culture supernatant of transfected cells; not shown: Fc region of human IgG1; histidine tag
Method: For antibody B, the evaluation of the binding activity of mouse Eph receptor was carried out according to the following steps.
Rabbit anti-6-His antibodies (Bethyl Laboratories) were coated onto the wells of a 96-well plate (Nunc). After incubating at 4° C. overnight, the wells were blocked at room temperature for 1 hour by 1% Block Ace (DS Pharma Biomedical). After washing 3 times with 0.05% Tween 20/PBS (Thermo […]), each Eph receptor of mouse extracellular region-Fc-His protein (final concentration 1 nM) was seeded into each well, and incubated at room temperature for 1 hour. After washing 3 times, human IgG solution (100 μg/mL, Sigma) and antibody B (10 μg/mL) were supplemented to the wells, and incubated at room temperature for 1 hour. Horseradish peroxidase-labeled goat anti-human Kappa Light Chain antibody (IBL) was added, and incubated at room temperature for 1 hour. After washing 3 times, TMBZ (3,3′,5,5′-tetramethylbenzidine, Sigma) solution was added to the wells, and upon confirmation of modest coloring, an equal amount of quenching solution (1 N H₂SO₄, Wako Pure Chemicals) was added to the wells, and absorbance at 450 nm was read by a microplate reader (PerkinElmer).

[2] = molecular target: T2, mouse EphA4 extracellular region-SEAP-His protein (mouse); test: SPR, Biacore T200; EphA4 extracellular region-SEAP-His captured on anti-His chip, antibody as analyte, 1:1 model
T2 construct: also called mouse EphA4 extracellular region-SEAP-His 10
Method: (§1) The binding affinity of antibody A against mouse and human EphA4 was determined by surface plasmon resonance (SPR method) employing Biacore T200 (GE Healthcare). First, anti-His antibodies (GE Healthcare, 28-9950-56) were fixed to a sensor chip CM5. Fixation was carried out by amine coupling method employing N-hydroxysuccinimide (NHS) and N-ethyl-N′-(3-dimethylaminopropyl) carbodiimide hydrochloride salt (EDC), and ethanolamine was employed for blocking (the sensor chip and reagents for fixation are all from GE Healthcare). This was diluted with the fixation buffer (10 mM sodium acetate, pH 4.5) to 3.5 μg/mL, and fixed onto the sensor chip according to the protocol accompanying Biacore T200. Mouse or human EphA4 extracellular region-SEAP-His 10 was diluted with the running buffer HBS-EP (GE Healthcare, BR-1001-88), and the solution was sent and captured onto the flow cell for 120 seconds (about 10 RU of captured amount). Subsequently, antibody A serially diluted to a range of 100, 50, 25, 12.5, 6.3, 3.2, 1.6, 0 nM with HBS-EP was added to the sensor chip for 120 seconds, and the binding reaction curve at the time of addition (binding phase, 120 seconds) and after completing the addition (dissociation phase, 600 seconds) was sequentially observed. Upon completion of each observation, 4 M MgCl₂ (60 seconds, Wako Pure Chemicals) was added to regenerate the sensor chip. Fitting analysis by 1:1 binding model employing the software accompanying the system, BIA evaluation software, was carried out against the binding reaction curve obtained, and the binding affinity (KD=kd/ka) against mouse and human EphA4 was calculated.
The binding affinity of antibody B obtained in Example 1 against human EphA4 was determined by surface plasmon resonance (SPR method) employing Biacore T200 (GE Healthcare). First, anti-His antibodies (GE Healthcare, 28-9950-56) were fixed to a sensor chip CMS. […]

[3] = molecular target: T2, mouse EphA4 extracellular …; test: SPR (Biacore T200): mouse EphA4 extracellular region-SEAP-His captured on anti-His antibody, antibody A 1.6-100 nM as analyte, 1:1 fit
Method: as §1, with “Subsequently, antibody A serially diluted to a range of 100, 50, 25, 12.5, 6.3, 3.2, 1.6, 0 nM with HBS-EP was added to the sensor chip for 120 seconds, and the binding reaction curve at the time of addition (binding phase, 120 seconds) and after completing the addition (dissociation phase, 600 seconds) was sequentially observed. Upon completion of each observation, 4 M MgCl₂ (60 seconds, Wako Pure Chemicals) was added to regenerate the sensor chip.” left out

[4] = molecular target: T3, rat EphA4 extracellular region-Fc-His protein (rat; human, UniProt D3ZZK3 20-547); test: ELISA: EphA4 extracellular region-Fc-His (1 nM) captured on anti-human IgG antibody, antibody A titrated with human IgG 100 µg/mL, HRP anti-mouse IgG, OD450 as % of top concentration
T3 construct: range 20-547; also called rat EphA4 extracellular region-Pc-His protein; not shown: Fc region of human IgG1; histidine tag
Method: (§2) Donkey anti-human IgG antibodies (Jackson ImmunoResearch Laboratories) were coated onto the wells of a 96-well plate (Nunc). After incubating at 4° C. overnight, the wells were blocked at room temperature for 1 hour by 1% Block Ace (DS Pharma Biomedical). After washing 3 times with 0.05% Tween 20/PBS (Thermo […]), mouse, rat, monkey, and human EphA4 extracellular region-Fc-His proteins (final concentration 1 nM) were seeded into the wells, and incubated at room temperature for 1 hour. After washing 3 times, human IgG solution (100 μg/mL, Mitsubishi Pharma Corporation) and antibody A (0, 0.00013, 0.00064, 0.0032, 0.016, 0.08, 0.4, 2, 10, μg/mL) were supplemented to the wells, and incubated at room temperature for 1 hour. Horseradish peroxidase-labeled donkey anti-mouse IgG antibody (Jackson ImmunoResearch Laboratories) was added, and incubated at room temperature for 1 hour. After washing 3 times, TMBZ (3,3′,5,5′-tetramethylbenzidine, Sigma) solution was added to the wells, and upon confirmation of modest coloring, an equal amount of quenching solution (1 N H₂SO₄, Wako Pure Chemicals) was added to the wells, and absorbance at 450 nm was read by a microplate reader (PerkinElmer).

[5] = molecular target: T4, monkey EphA4 extracellular region-Fc-His protein (monkey; human); test: as above
T4 construct: not shown: Fc region of human IgG1; histidine tag
Method: as §2

[6] = molecular target: T5, human EphA4 extracellular region-Fc-His protein (human, UniProt P54764 20-547); test: as above
T5 construct: not shown: Fc region of human IgG1; histidine tag
Method: as §2

[7] = molecular target: T1, mouse EphA4 extracellular region-Fc-His …; test: as above
Method: as §2

T2 sequence (chain, as listed by the source limits assumed): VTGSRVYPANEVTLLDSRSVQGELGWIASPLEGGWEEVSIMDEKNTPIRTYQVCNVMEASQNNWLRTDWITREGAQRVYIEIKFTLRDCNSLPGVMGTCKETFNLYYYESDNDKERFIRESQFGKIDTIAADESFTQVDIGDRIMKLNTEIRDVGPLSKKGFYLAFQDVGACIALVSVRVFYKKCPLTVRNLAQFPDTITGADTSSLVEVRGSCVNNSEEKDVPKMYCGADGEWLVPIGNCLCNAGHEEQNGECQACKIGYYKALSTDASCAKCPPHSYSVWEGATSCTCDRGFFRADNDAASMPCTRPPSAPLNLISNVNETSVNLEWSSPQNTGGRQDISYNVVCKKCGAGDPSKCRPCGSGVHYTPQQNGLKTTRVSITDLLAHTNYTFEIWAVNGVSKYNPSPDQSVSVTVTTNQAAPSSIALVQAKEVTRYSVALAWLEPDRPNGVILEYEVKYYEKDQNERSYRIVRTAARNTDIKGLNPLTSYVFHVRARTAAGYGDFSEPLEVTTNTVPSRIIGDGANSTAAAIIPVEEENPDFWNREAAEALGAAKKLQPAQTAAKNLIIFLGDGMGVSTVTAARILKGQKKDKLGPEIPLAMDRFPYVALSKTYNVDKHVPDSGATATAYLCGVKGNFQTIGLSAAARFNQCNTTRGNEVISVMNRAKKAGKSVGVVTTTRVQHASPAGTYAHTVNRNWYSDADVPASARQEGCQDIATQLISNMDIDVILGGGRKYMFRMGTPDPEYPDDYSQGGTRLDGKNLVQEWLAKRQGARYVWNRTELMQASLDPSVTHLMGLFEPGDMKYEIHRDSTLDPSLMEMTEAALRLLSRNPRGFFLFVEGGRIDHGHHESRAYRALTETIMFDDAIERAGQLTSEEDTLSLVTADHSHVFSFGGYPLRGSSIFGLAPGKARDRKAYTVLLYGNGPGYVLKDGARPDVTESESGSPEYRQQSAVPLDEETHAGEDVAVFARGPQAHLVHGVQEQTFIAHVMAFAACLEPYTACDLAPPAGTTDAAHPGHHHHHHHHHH
T1 sequence (Q03137 20-547): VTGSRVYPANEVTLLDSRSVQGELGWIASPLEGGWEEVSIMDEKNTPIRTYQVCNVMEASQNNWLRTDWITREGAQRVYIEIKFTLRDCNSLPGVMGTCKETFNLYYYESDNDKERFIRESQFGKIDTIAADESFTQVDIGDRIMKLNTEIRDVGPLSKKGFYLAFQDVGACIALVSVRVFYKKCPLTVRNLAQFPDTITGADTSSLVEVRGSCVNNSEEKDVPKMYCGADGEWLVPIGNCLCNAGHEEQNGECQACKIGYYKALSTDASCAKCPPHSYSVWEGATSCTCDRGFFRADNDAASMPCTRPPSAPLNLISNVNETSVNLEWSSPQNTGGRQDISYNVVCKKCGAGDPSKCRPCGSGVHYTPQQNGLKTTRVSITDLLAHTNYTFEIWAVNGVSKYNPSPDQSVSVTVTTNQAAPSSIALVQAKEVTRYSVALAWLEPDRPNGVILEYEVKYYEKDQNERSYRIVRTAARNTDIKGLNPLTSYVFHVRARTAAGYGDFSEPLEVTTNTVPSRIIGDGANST
T5 sequence (P54764 20-547): as the sequence (Q03137 20-547) above, with A59P, S121N, G124V, Q250R, N251S, S270T, R378K, S406N counted along it
T4 sequence (chain, as listed by the source): as the sequence (Q03137 20-547) above, with A59P, S121N, G124V, Q250R, N251S, S270T, R378K counted along it

B1: humanized anti-EphA4 monoclonal antibody (antibody B) (antibody, human IgG2, V domains shown)
VH: QVQLVESGGGVVQPGRSLRLSCAVSGFSLTRFGVHWVRQAPGKGLEWVAVIWRGGSTDYNAAFMSRLTISKDNSKNTVYLQMNSLRAEDTAVYYCAKESLFGVYYDYGYYSMDYWGQGTTVTVSS
VL: DIQMTQSPSSLSASVGDRVTITCRASQEISGYLSWLQQKPGKAPKRLIYAASTLDSGVPSRFSGSRSGTEYTLTISSLQPEDFATYYCLQYASYPLTFGGGTKVEIKR
notes: expressed in Expi293F cells; also called humanized antibody of antibody A; HK2-42 / L1-8
B1: binds [1].

B2: mouse anti-EphA4 monoclonal antibody (antibody A) (antibody, mouse IgG1, kappa, V domains shown)
VH: QVQLKQSGPSLVQPSQSLSITCTVSGFSLTRYGVHWVRQSPGKGLEWLGVIWRGGSTDYNAAFMSRLSITKDNSKSQVFFKMNSLQADDTAIYYCAKESLFGVYYDYGYYSMDYWGQGTSVTVSS
VL: DIQMTQSPSSLSASLGERVSLTCRASQEISGYLSWLQQKPDGTIKRLIYAASTLDSGVPKRFSGSRSGSDYSLTISSLESEDFADYYCLQYASYPLTFGAGTKLELKR
notes: purified from hybridoma supernatant
B2 was tested, and the Kd [2] was 1.32 nM, the koff [3] was 0.000433 s⁻¹ and the kon [3] was 328000 M⁻¹ s⁻¹. For the same binder, the “EC50 (read off the curve)” value [4] was ~0.1 nM, the “EC50 (read off the curve)” value [5] was ~0.1 nM and the “EC50 (read off the curve)” value [6] was ~0.1 nM. For the same binder, the “EC50 (read off the curve)” value [7] was ~0.1 nM.

Source: patent US20240010735A1 (EISAI R AND D MANAGEMENT, published 2024)
